Experimental data reported in paper PMC8865451.
pKd: −log10 of the molar value.

Target: cs130Fc (human) (UniProt P40189)
Assay: SPR

hyper-IL-6 (HIL-6) gave a pKd of 10.23.
